Experimental data reported in PMC2854692.

Biological target: Glucagon receptor (UniProt P47871)
UniProt P47871, sequence (P47871 26-477): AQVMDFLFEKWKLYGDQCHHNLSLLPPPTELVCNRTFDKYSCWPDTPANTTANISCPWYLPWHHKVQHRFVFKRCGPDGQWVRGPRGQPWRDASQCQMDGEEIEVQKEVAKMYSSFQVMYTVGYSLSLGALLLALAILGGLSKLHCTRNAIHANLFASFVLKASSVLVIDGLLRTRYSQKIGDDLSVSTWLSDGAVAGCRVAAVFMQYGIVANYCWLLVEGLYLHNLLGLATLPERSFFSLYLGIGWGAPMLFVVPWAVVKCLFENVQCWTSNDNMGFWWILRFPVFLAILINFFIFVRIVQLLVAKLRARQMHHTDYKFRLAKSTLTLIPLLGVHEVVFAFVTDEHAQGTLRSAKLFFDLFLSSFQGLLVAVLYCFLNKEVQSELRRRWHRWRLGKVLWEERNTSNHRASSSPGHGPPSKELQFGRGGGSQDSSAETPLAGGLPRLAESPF

- potency in the Ca2+-flux assay (FLIPR) on a transfected GcgR cell line, relative to unmodified glucagon, molar basis (% of the potency of unmodified glucagon): 15
B1: Gcg-XTEN (ligand)
chain: HSQGTFTSDYSKYLDSRRAQDFVQWLMNTGGTSTPESGSASPGTSPSGESSTAPGTSPSGESSTAPGSTSSTAESPGPGSTSESPSGTAPGSTSSTAESPGPGTSPSGESSTAPGTSTPESGSASPGSTSSTAESPGPGTSPSGESSTAPGTSPSGESSTAPGTSPSGESSTAPG
